pKd: −log10 of the molar value.
Target: Abraxane (Homo sapiens, UniProt P02768)
Assay: Bio-layer interferometry (BLItz) binding affinity of OKT3 and Abraxane
Method: To understand the characteristics of the nanoparticles formed when binding OKT3 to Abraxane, the binding affinity of the complex was determined by a Bio-layer interferometry (BLItz) assay, which is an optical technology that uses interference of white light reflection to determine binding affinities of 2 proteins
In a BLItz assay, if the 2 proteins bind, the reflected light changes wavelength in a manner that correlates to the binding affinity of the 2 proteins. Here biotinylated OKT3 at 100 ug/ml was immobilized on a streptavidin-containing probe and exposed to Abraxane at 2 concentrations-500 ug/ml (Run 2) and 1000 ug/ml (Run 3)
In the case of the anti-human CD3 antibody (OKT3) and Abraxane, biotinylated OKT3 at 100 ug/ml was immobilized on a streptavidin-containing probe. The OKT3 bearing probe was then immersed in Abraxane at 2 concentrations, 500 ug/ml and 1000 ug/ml (Run 2 and Run 3). […] The association and dissociation constants on the proteins were calculated by the BLItz software.

binding of Abraxane to immobilized OKT3 (OKT3 bearing probe immersed in Abraxane at 500 ug/ml and 1000 ug/ml (Run 2 and Run 3)): concentration dependent manner
pKd (biotinylated OKT3 at 100 ug/ml immobilized on streptavidin-containing probe, Abraxane at 500 ug/ml and 1000 ug/ml, calculated by BLItz software, read-out: dissociation constant (Kd) of OKT3 and Abraxane): 8.65
Substance: muromonab-CD3 [OKT3]

— patent US11160876B2, “Methods and compositions for targeting t-cell cancers” (Mayo Foundation for Medical Education and Research, priority 2016, dated 2021)
